The results in this text go back to the supplement of paper PMC5998384.

For data set [1], the system named is HeLa Kyoto. The experiment in a line: solubility in G1/S (NP-40 vs SDS abundance) (log2 ratio); higher = more soluble. The note with it: cell cycle stage: G1/S.
In data set [2] the test system is HeLa Kyoto. The data set is described as follows: melting temperature (median over replicates), in situ; higher = more thermally stable.
Data set [3] deals with HeLa Kyoto. The experiment in a line: solubility change mitosis vs G1/S (difference of NP-40 vs SDS log2 ratios) (log2 ratio difference); higher = more soluble in mitosis.
Data set [4] has as its system HeLa Kyoto. The experiment in a line: thermal stability score vs G1/S (z-score of summed log2 fold changes over temperatures); higher = more thermally stable than in G1/S.
Where [5] appears, read: cell cycle stage: early G1 (4.5 h after nocodazole release).
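Throughout, for melting temperature (median over replicates), in situ: HeLa Kyoto cells synchronized by double thymidine or nocodazole block, proteins quantified by TMT10plex mass spectrometry, three independent biological replicates.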
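Throughout, for solubility change mitosis vs G1/S (difference of NP-40 vs SDS log2 ratios): synchronized HeLa Kyoto cells (double thymidine block for G1/S, nocodazole release for mitosis), protein amounts in NP-40 versus SDS lysates quantified by mass spectrometry, three biological replicates.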
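Throughout, for solubility in G1/S (NP-40 vs SDS abundance): HeLa Kyoto cells arrested at G1/S by double thymidine block, proteins quantified by TMT10plex mass spectrometry in mild NP-40 versus SDS extracts, three biological replicates.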
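Throughout, for thermal stability score vs G1/S (z-score of summed log2 fold changes over temperatures): synchronized HeLa Kyoto cells, proteins quantified by TMT10plex mass spectrometry, three biological replicates, mitosis taken 0.5 h after nocodazole release, G1/S directly after double thymidine block.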

Regarding “MAAAGAFRLRRAASALLLRSPRLPARELSAPARLYHKKVVDHYENPRNVGSLDKTSKNVGTGLVGAPACGDVMKLQIQVDEKGKIVDARFKTFGCGSAIASSSLATEWVKGKTVEEALTIKNTDIAKELCLPPVKLHCSMLAEDAIKAALADYKLKQEPKKGEAEKK [ISCU]”, the “solubility in G1/S (log2)” value with HeLa Kyoto [1] was determined as 0.467. Moreover, the melting temperature is 53.3 °C in the data set with HeLa Kyoto [2] (cell cycle stage: G1/S) and 54 °C in the data set with HeLa Kyoto [2] (cell cycle stage: mitosis). Besides, the “solubility change mitosis (log2)” value in the data set on HeLa Kyoto [3] was 0.0125. Further, the thermal stability score with HeLa Kyoto [4] (setting [5]) was -1.67; in the data set on HeLa Kyoto [4] (cell cycle stage: mitosis), -2.36.

For the sequence “MAGAAPRVRYLAGFCCPLGGLAAGKPRVLCHEAEVFLSTGSELVYVYDQEGGLLTAAFRFPDQVWHLELLAPRRLLYALCARRGLYCLSLDHPGRSRSTSQDDRDSEDGDQPSPVIPVDPDACILPDAALCAFTLLDSVLVTLVQGPARWKMQLFEQPCPGEDPRPGGQIGEVELSSYTPPAGVPGKPAAPHFLPVLCSVSPSGSRVPHDLLGGSGGFTLEDALFGLLFGADATLLQSPVVLCGLPDGQLCCVILKALVTSRSAPGDPNALVKILHHLEEPVIFIGALKTEPQAAEAAENFLPDEDVHCDCLVAFGHHGRMLAIKASWDESGKLVPELREYCLPGPVLCAACGGGGRVYHSTPSDLCVVDLSRGSTPLGPEQPEEGPGGLPPMLCPASLNICSVVSLSASPRTHEGGTKLLALSAKGRLMTCSLDLDSEMPGPARMTTESAGQKIKELLSGIGNISERVSFLKKAVDQRNKALTSLNEAMNVSCALLSSGTGPRPISCTTSTTWSRLQTQDVLMATCVLENSSSFSLDQGWTLCIQVLTSSCALDLDSACSAITYTIPVDQLGPGARREVTLPLGPGENGGLDLPVTVSCTLFYSLREVVGGALAPSDSEDPFLDECPSDVLPEQEGVCLPLSRHTVDMLQCLRFPGLAPPHTRAPSPLGPTRDPVATFLETCREPGSQPAGPASLRAEYLPPSVASIKVSAELLRAALKDGHSGVPLCCATLQWLLAENAAVDVVRARALSSIQGVAPDGANVHLIVREVAMTDLCPAGPIQAVEIQVESSSLADICRAHHAVVGRMQTMVTEQATQGSSAPDLRVQYLRQIHANHETLLREVQTLRDRLCTEDEASSCATAQRLLQVYRQLRHPSLILL [FAAP100]”, the “solubility in G1/S (log2)” value with HeLa Kyoto [1] was 0.0643. Also, the melting temperature was determined as 54 °C in the data set on HeLa Kyoto [2] (cell cycle stage: G1/S) and 52.6 °C in the data set on HeLa Kyoto [2] (cell cycle stage: mitosis). In addition, the “solubility change mitosis (log2)” value with HeLa Kyoto [3] is -0.00216. The thermal stability score is -0.383 with HeLa Kyoto [4] (setting [5]) and 0.0611 with HeLa Kyoto [4] (cell cycle stage: mitosis).

On to “MKGMSHEPKSPSLGMLSTATRTTATVNPLTPSPLNGALVPSGSPATSSALSAQAAPSSSFAAALRKLAKQAEEPRGSSLSSESSPVSSPATNHSSPASTPKRVPMGPIIVPPGGHSVPSTPPVVTIAPTKTVNGVWRSESRQDAGSRSSSGGRERLIVEPPLPQEKAGGPAIPSHLLSTPYPFGLSPSSVVQDSRFPPLNLQRPVHHVVPPSTVTEDYLRSFRPYHTTDDLRMSSLPPLGLDPATAAAYYHPSYLAPHPFPHPAFRMDDSYCLSALRSPFYPIPTPGSLPPLHPSAMHLHLSGVRYPPELSHSSLAALHSERMSGLSAERLQMDEELRREREREREREREREADREREKEREREREKEREQEKEREREKERERELERQREQRAREKELLAAKALEPSFLPVAELHGLRGHATEERGKPSEQLTPTRAEKLKDAGLQAPKPVQHPLHPVPTPHHTVPSLISNHGIFSLPSSSAATALLIQRTNEEEKWLARQRRLRQEKEDRQSQVSEFRQQVLEQHLDMGRPPVPAEAEHRPESTTRPGPNRHEPGGRDPPQHFGGPPPLISPKPQLHAAPTALWNPVSLMDNTLETRRAESHSLHSHPAAFEPSRQAAVPLVKVERVFCPEKAEEGPRKREPAPLDKYQPPPPPPREGGSLEHQPFLPGPGPFLAELEKSTQTILGQQRASLPQAATFGELSGPLKPGSPYRPPVPRAPDPAYIYDEFLQQRRRLVSKLDLEERRRREAQEKGYYYDLDDSYDESDEEEVRAHLRCVAEQPPLKLDTSSEKLEFLQLFGLTTQQQKEELVAQKRRKRRRMLRERSPSPPTIQSKRQTPSPRLALSTRYSPDEMNNSPNFEEKKKFLTIFNLTHISAEKRKDKERLVEMLRAMKQKALSAAVADSLTNSPRDSPAVSLSEPATQQASLDVEKPVGVAASLSDIPKAAEPGKLEQVRPQELSRVQELAPASGEKARLSEAPGGKKSLSMLHYIRGAAPKDIPVPLSHSTNGKSKPWEPFVAEEFAHQFHESVLQSTQKALQKHKGSVAVLSAEQNHKVDTSVHYNIPELQSSSRAPPPQHNGQQEPPTARKGPPTQELDRDSEEEEEEDDEDGEDEEEVPKRKWQGIEAVFEAYQEHIEEQNLERQVLQTQCRRLEARHYSLSLTAEQLSHSVAELRSQKQKMVSERERLQAELDHLRKCLALPAMHWPRGYLKGYPR [GSE1]”, for which, in the data set on HeLa Kyoto [1], the “solubility in G1/S (log2)” value came out at 0.0704. Moreover, the melting temperature in the data set with HeLa Kyoto [2] (cell cycle stage: G1/S) was determined as 50.8 °C; with HeLa Kyoto [2] (cell cycle stage: mitosis), 49.9 °C. Besides, the “solubility change mitosis (log2)” value with HeLa Kyoto [3] was 0.0661. For the same sequence, the thermal stability score was -0.121 in the data set on HeLa Kyoto [4] (setting [5]) and 0.454 with HeLa Kyoto [4] (cell cycle stage: mitosis).

Regarding “MDVGELLSYQPNRGTKRPRDDEEEEQKMRRKQTGTRERGRYREEEMTVVEEADDDKKRLLQIIDRDGEEEEEEEEPLDESSVKKMILTFEKRSYKNQELRIKFPDNPEKFMESELDLNDIIQEMHVVATMPDLYHLLVELNAVQSLLGLLGHDNTDVSIAVVDLLQELTDIDTLHESEEGAEVLIDALVDGQVVALLVQNLERLDESVKEEADGVHNTLAIVENMAEFRPEMCTEGAQQGLLQWLLKRLKAKMPFDANKLYCSEVLAILLQDNDENRELLGELDGIDVLLQQLSVFKRHNPSTAEEQEMMENLFDSLCSCLMLSSNRERFLKGEGLQLMNLMLREKKISRSSALKVLDHAMIGPEGTDNCHKFVDILGLRTIFPLFMKSPRKIKKVGTTEKEHEEHVCSILASLLRNLRGQQRTRLLNKFTENDSEKVDRLMELHFKYLGAMQVADKKIEGEKHDMVRRGEIIDNDTEEEFYLRRLDAGLFVLQHICYIMAEICNANVPQIRQRVHQILNMRGSSIKIVRHIIKEYAENIGDGRSPEFRENEQKRILGLLENF [CTNNBL1]”, the “solubility in G1/S (log2)” value in the data set on HeLa Kyoto [1] is -0.0781. Besides, the melting temperature in the data set on HeLa Kyoto [2] (cell cycle stage: G1/S) was found to be 47.6 °C; in the data set with HeLa Kyoto [2] (cell cycle stage: mitosis), 47.7 °C. In the data set with HeLa Kyoto [3], the “solubility change mitosis (log2)” value came out at 0.207. In addition, the values for the thermal stability score in the data set with HeLa Kyoto [4] (setting [5]) and in the data set on HeLa Kyoto [4] (cell cycle stage: mitosis) were 3.96 and 7.66, respectively.

“MPHIDNDVKLDFKDVLLRPKRSTLKSRSEVDLTRSFSFRNSKQTYSGVPIIAANMDTVGTFEMAKVLCKFSLFTAVHKHYSLVQWQEFAGQNPDCLEHLAASSGTGSSDFEQLEQILEAIPQVKYICLDVANGYSEHFVEFVKDVRKRFPQHTIMAGNVVTGEMVEELILSGADIIKVGIGPGSVCTTRKKTGVGYPQLSAVMECADAAHGLKGHIISDGGCSCPGDVAKAFGAGADFVMLGGMLAGHSESGGELIERDGKKYKLFYGMSSEMAMKKYAGGVAEYRASEGKTVEVPFKGDVEHTIRDILGGIRSTCTYVGAAKLKELSRRTTFIRVTQQVNPIFSEAC [GMPR2]”: the “solubility in G1/S (log2)” value with HeLa Kyoto [1] was determined as 0.0286. For the same sequence, the results for the melting temperature in the data set on HeLa Kyoto [2] (cell cycle stage: G1/S) and with HeLa Kyoto [2] (cell cycle stage: mitosis) were 56.3 °C and 59.4 °C, respectively. Further, the “solubility change mitosis (log2)” value with HeLa Kyoto [3] was -0.137. The thermal stability score is -0.68 with HeLa Kyoto [4] (setting [5]) and -2.3 with HeLa Kyoto [4] (cell cycle stage: mitosis).
